In publication PMC4140785 one finds Kd, koff and kon data, which are given here for three substances.

Test [1] concerns the target full-length HIV-1 gp120 from the clade B YU2 strain (HIV-1 (clade B, strain YU2)) (UniProt P35961). Briefly: SPR.
In test [2] the target is CD4-mimetic miniprotein M48U1. The test is described as follows: SPR.

In test [1], “CD4-mimetic miniprotein M48U1 (designed binder)” registered a Kd of 0.0154 nM.

Consider “CD4-mimetic miniprotein M48U7 (designed binder)”, for which, in test [1], the Kd turned out to be 0.18 nM, the koff came to 0.000446 s⁻¹ and the kon came to 2.42e+06 M⁻¹ s⁻¹.

Consider “full-length HIV-1 gp120 from the clade B YU2 strain (from UniProt P35961 32-498) (natural protein)”, for which the Kd in test [2] was 0.014 nM.
